These results are taken from patent US20180312608A1 (NEW YORK UNIVERSITY, published 2018).

Holding throughout (assay): Biacore (SPR), tau peptide
(SPR reads the build-up and loss of mass on a sensor chip optically.)

The target in test [1] is T1, Tau379-408 [P-Ser396/404] (phosphoserine at Ser396 and Ser404 (Tau numbering, SEQ ID NO:1)).
T1 construct: 30 amino acid synthetic peptide; also called Tau 379-408 (PSer396/PSer404)

In the next test the target is Tau386-408 [P-Ser404] (phosphoserine at Ser404 of Tau (position 19 of SEQ ID NO:7)).
In test [2] the target is T2, Tau386-408 [P-Ser396/404] (phosphoserine at positions 11 and 19 (Ser396 and Ser404 of Tau)).
T2 construct: 23 amino acid peptide; also called Tau 386-408 (PSer396/PSer404)

In a further test the target is T3, Tau379-408.
T3 construct: 30 amino acid synthetic peptide, not phosphorylated; also called Tau 379-408 (Ser396/Ser404)
T3 sequence (peptide, as listed by the source): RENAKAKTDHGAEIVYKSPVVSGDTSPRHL

T2 sequence (peptide, as listed by the source): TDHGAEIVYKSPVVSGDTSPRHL

B1: Antibody 4E6G7 (antibody, V domains shown)
VH: VQLQQSGAELVQPGASVKLSCTASGFNIKDTSMHWVRQRPEQGLEWIGRIAPANGNTKYDPKFQGKATITTDTSSNTAYLQLSSLTSEDTAVYYCSGSGNYDWGQGTTLTVS
VL: DIQMNQSPSSLSASLGDTITISCHASQNINVWLSWYQQKPGNIPKLLIFEASTLYTGVPSRFSGSGSGTGFTLTISSLQPEDIATYYCQQGQSYPWTFGGGTKLEIKR
notes: constant regions are not
By Kd is commonly meant the free concentration of one partner at which half of the binding sites on the other are occupied at equilibrium, for simple one-to-one binding. Higher therefore signals weaker binding. As to B1, the dissociation constant Kd in test [1] is 271 nM; with Tau386-408 [P-Ser404], 278 nM; in test [2], 469 nM; with Tau379-408 it was 212 nM.
